These results are taken from the DeepSol protein solubility set.

A short description of this data set: soluble on expression in E. coli; label from the status in PepcDB or PDB records.
On to “MSLRIAVVGATGRIGSKLTRTLLGAGHQVKALSRGGAALEALVEAGAEPFLGSFDTGAGALDTFFQDVEAAFLMVKTDWNNIEGHYPAVAQRFVDALRGSPVKLAVSLSAMGSDVDGKTGHFELFHHLDQRLNELNDIDMVHLRAAWFMENTLAWTASVAKYGRLAWFYEPDLKMPWVATDDIAGLAAKELTNPTGDHRVIRETGSEDLTMNELAAMIGREIGKPVEYRFIDRGRKEIENEYLARFGTPEHWLDDSRSADALNHGVVRFQGGDDVRPVLPTTMEAFLKTIWTPRYLEALASEEGHHHHHH”, for which the “soluble on expression in E. coli” value is recorded as “soluble”.
In the case of “MSLRIFLCGCVHGSWEVVVNEVNKLVAKGTKIDLIIVAGDTESFRSKSDLESYNYQRQNHDLGTFHKLVSGELKLPCKMLMIGGNNEVGDMIFQLPFGGWVTPDIFFAGINSQIYFGDLLITCQSGIMNGQDYHKCISEKFPVRGCDTHLILHIREVSIFQLYGLKNVPLFVSHEWPSGIPKQYRNIPRMQFYAKSDDKNDFGCPGFVKLLNKHRPKKWYAAHLHVRFDCTLKNGTKFTGVPKVIDKRYKWYELEEYNCNPAGGFKFSGEWINIVKNTERFVKNPKLLQNLDWDEEWRKIYETMNTEDFPEKVDVMEYNDDYQIQTKKFCDSYQIYNPYKEGHHHHHH” it was “soluble”.
In the case of “MSLRIIVVGGGKVGTALCRSLVAEKHDVVLIEKKENVLKRVTKQHDIMGIVGNGANYKILEQAEVKNCDIFIAITDRDEVNMISAVLAKKMGAKETVVRMRNPEYSNPYFKDKNFLGFSSVVNPELLAAQYIANTIEFPNATSVEHFANGRVMLMEFKILEGNKLCHTSMSQIRKKFGNIVICAIERDGKLIIPDGDATIQVKDKIFVTGNRIEMILFHNYVKNKVVKNLMVIGAGRIAYYLLNILKNTNTHVKLVELNQEQAEYFSQEFPNVPVVHGDGTAKNILLEESVTSFDAVATLTGVDEENIITSMFLESIGIPKNITKVNRTSLLEIIDDKQLSSIITPKRIAVDHVMHFVRGRVNAQDSNLEAMHHIANDRIETLQFEIKETSKLANRSLASLKLKQNILIAAIIRNNKTIFPTGEDVLTVGDRIVVITLLKNITRTSDMLAREGHHHHHH” it was “soluble”; in that of “MSLRILLALASLSGNTREVARVIRARCEERGHRVDWIETDLQTLAGQALDPHTYTLFLLGTWTDNAGRTPFEMKRFIVELLELIGKPPSVAVFGTGETQWGQEYYCGAVHRISDFFASRFPRLLIEQMPHGERDALAIVEWTDQVLDQCNKDSDADHYRYVAEGHHHHHH”, “soluble”; in that of “MSLRILLVDDVQLDRMQLAIRLKQLGHIVKAVGSGIEALNTYESFDPELVLLDISMPEMNGFEVSLHVRETFPDWIPIIFLSSHEEPEMIAKAIDAGGDDYLIKPVDKLVLNSKLIAMQRIAHMRRELKQATAQLEQVNQLLTQQANEDGLTKLFNRRYIDQKLDSMVAWHGRHHMPMAMILLDVDFFKPFNDNYGHIEGDRCLQAIANQLKATFCRSGEYVGRYGGEEFVVLLSSTDAQTAEREAERIQEAMYFLDYQHEFSSVANRVTVSQGVFVFQPTGKENQADLYATADRALYTSKSLGRNTYTMVNASEGHHHHHH”, “soluble”.
With “MSLRISTNQIYQRGLDNLLTQQERLARLQDQQASGIRVRTPSDDPVASAQIELIKQRINNIELFQNNRQAADSALRLEEGILSNAVNSLHRLREIQIQAGNPSLSEEDRKTLAVEAQALLNQLLDYANTKDSNGSYMFSGSKSLTQPVSLNLSGQYVYNGDSTQRFQAVTTSLLVAVNDTGDNVFMRIPSGNGRFAIRETLTPNTGTASVSSGSVTNEAAFVPDNYTMTFALNSQGNLVVMVSGTLSGNVIPPSGLPDDAPLYQEGSAIGFNGMEMVVSGLPKAGDSFSISPAKNESIFSTVQRMINNLNKPYTSSVEKAATQTENNQLLAQIDSALGHILSVQSDLGARLNQLETAEKANNDYLDISAATLKKLREIDEGHHHHHH”, the “soluble on expression in E. coli” value was “soluble”.
For “MSLRLYFVRHGKTQWNLEGRLQGSKGDSPLLKESIEQVSELGHYLSDTHFDLVLSSDLPRAKKTTELIMESQKTKAKITYTKDLREWQLGKLEGQKLSIIQAIYPKEMDAFRHNLANFRANNFQAESVYHTTKRVADLVRTLKDSSMKNVLLVGHGANLTASIRSLLGFEPGLLRKAGGLDNASVTILETDDCEHFTLKSWNDTSYRTQVNKISEGHHHHHH” the value was “soluble”; for “MSLRNIKWAILGPGTIARDFAKAISEVDNNIYAVASRNIERAKKFANEYKAEKFYGDYDEMLRDENIDVVYISTPHCNHYEYIIKSLENNKHVFCEKAITVNGNQLKEIVDLANKKNLIVREAMTIYHMPLYKKLRELVDEGKIGKVKMIQVSFGSLKEYDVNNRFFSKDLAGGALLDIGTYALSFTRYFLSSQPEEILTTVKKFETGVDEQSGIILKNAEDEMAVISLTMRAKQPKRGVVAGEKAYITVENFPRADKATITYPDGSVEVVEAGETDRALVYEVQDMKACILNKDTDYTLQLSLGVMNIMDEVRSQWGIRYPFEEGHHHHHH”, “soluble”; for “MSLRPFATKAEADAAVADIRARGRLIVGLDIGSNLFSFRDPITGEITGFDVDIAGEVARDIFGVPSHVEYRILSAAERVTALQKSQVDIVVKTMSITCERRKLVNFSTVYLDANQRILAPRDSPITKVSDLSGKRVCVARGTTSLRRIREIAPPPVIVSVVNWADCLVALQQREIDAVSTDDTILAGLVEEDPYLHIVGPDMADQPYGVGINLDNTGLVRFVNGTLERIRNDGTWNTLYRKWLTVLGEGHHHHHH”, “soluble”.
For “MSLRPTPAPSFSGVTVDGKPFSSASLKGKAYIVNFFATWCPPCRSEIPDMVQVQKTWASRGFTFVGIAVNEQLPNVKNYMKTQGIIYPVMMATPELIRAFNGYIDGGITGIPTSFVIDASGNVSGVIVGPRSKADFDRIVKMALGAKAATKKGIITITTDPNSSSVDKLAAALEHHHHHH”, the “soluble on expression in E. coli” value is given as “soluble”.
For “MSLRRARIAFASIDYTGDAWRHIPSVIGEMFAGIGEHAWRRDAVLEIVGVEDEEAEGYLRRVAERRPVDGLLLRVANDIRGEHLDILERAGMPYVLIKRHIPGRRMNCVISDDVTGARMATSHLLELGHRRIGFVCGKPHLTLNRERLAGYREALEEHGVGFDEGLVRQEEHFTTEMGYRAVRSLLEAPSRPSAVFVASDTMAIGGYEAVWDLGLRIPDDVSIVGYDDIQAASALQPPLTTVRTSYYDFGRLAAQLLLDLIEGREVAPQRRVIHPTLVVRGSTREGHHHHHH” the value was “soluble”; for “MSLRSAKHHFGAATSRGTRPSNEDTYQAGVIDIPAFAKRPPASLTIRNRSARVAGLRENRGADSASGDPQVFYFGIFDGHGGSECSTFMKETLHEYIQDTAAEFELQSSLRKAGENSASPDAESELPIRQGSNVARVQRLEKSLVQSWRNLVGGYFRRFVPPNFSHLAKHTAEESSSVPENNKGVTIEEILEYAFLRADLDFVSAQASREDDELSNVCRPLYQDDILYGPSRSQSLNIAGLRRFKGGSTASTVMISTPTPAPFWHPASPSSLLVSHVGDTRMLLCSTVTGEAIPLTSNHHPSSPIEANRLRRYAATFVTDSFGEERISGLANTRAFGDVQSKRIGVSAEPELRRFEIAPAEYSFLVLMSDGISEALTDQEVVDIIKEAKTPDEGARHVVNFATEVTRTGDNATCLVVRLGGWEREGHHHHHH”, “not soluble”.
In the case of “MSLRSEVKAEDTWRLEDIFPSDEAWNKEFQAVKELIPNLSKYKGKLADSADHLYEALTYQDKVMERLGRLYTYAHMRSDQDTGNSFYQGLNDKAGNLYTQAESATAYLVPEILSIEEDKLQQFILEKEELKLYSHAIEEITKERPHVLSEKEEALLAEASEVLGSSSNTFSVLNNADITFPSIKDEDGNEKQITHGNFINFLESENREVRKNAFDAVYKTYGQYKNTMATTLSGTVKKDNFYARVKKYKSAREAALSNNSIPEEVYDNLVKTINKHLPLLHRYIALRKKVLELDEVHIYDLYTPLVKDAGMKVTYEEAKDYMLKGLAPLGEEYASILKEGLENRWVDVYENKGKRNGAYSSGAYGTNPYILMNWHNNVNNLFTLVHEFGHSVHSYYTRKHQPYPYGNYSIFVAEVASTTNEALLGEYLLNNLEDEKQRLYILNHMLEGFRGTVFRQTMFAEFEHLIHTKAQEGEPLTPELLTNVYYDLNKKYFGDGMVIDKEIGLEWSRIPHFYYNYYVYQYATGYSAAQALSSQILKEGKPAVDRYIDFLKAGSSQYPIDVLKKAGVDMTSPEPIEAACKMFEEKLDEMEELLMKVKEGHHHHHH” it was “soluble”.
